{"source": "patent US6677440", "key": {"prourokinase": {"target": "prourokinase (UniProt P00749)"}, "[1]": {"target": "blood clotting factor VII (UniProt P08709)", "sequence (P08709 61-466)": "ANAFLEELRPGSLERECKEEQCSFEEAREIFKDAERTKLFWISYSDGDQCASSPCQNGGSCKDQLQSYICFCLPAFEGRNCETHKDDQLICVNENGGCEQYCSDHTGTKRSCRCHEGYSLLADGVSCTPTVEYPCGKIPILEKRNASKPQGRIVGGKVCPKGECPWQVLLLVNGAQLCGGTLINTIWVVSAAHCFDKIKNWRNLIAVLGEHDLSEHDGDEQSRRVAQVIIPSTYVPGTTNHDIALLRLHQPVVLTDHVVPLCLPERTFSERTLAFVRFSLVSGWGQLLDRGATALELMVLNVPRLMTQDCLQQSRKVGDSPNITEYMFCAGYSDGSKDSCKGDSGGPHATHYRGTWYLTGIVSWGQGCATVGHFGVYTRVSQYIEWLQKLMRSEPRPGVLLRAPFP"}}, "data": [{"substance": "proenzyme form of the factor VII-activating protease", "values": [{"measurement": "activation of prourokinase, with subsequent detection of urokinase (activity tests of Example 1)", "setting": "prourokinase", "value": "The activity tests (see Example 1) confirmed the nativity of the protein in the sense of the retainment of the biological activities"}, {"measurement": "activation of factor VII, with subsequent detection of activated factor VII (activity tests of Example 1)", "setting": "[1]", "value": "The activity tests (see Example 1) confirmed the nativity of the protein in the sense of the retainment of the biological activities"}]}]}
